Numbering of substitutions follows the chain as printed. Blank lines part the entries; values can stand above or below the binder they belong to.
Key:
cynomolgus LIV-1 = cynomolgus LIV-1 (cynomolgus, UniProt A0A2K5WH46 30-741); experiment: FACS, HEK293/Cyno_LIV-1 cells
Method: (§1) In this example, cell based binding of chimeric Abs on human and cyno LIV-1 over-expressing HEK 293 cells were assessed using flow cytometry.
(§2) Briefly, cells were incubated with chimeric Abs (from 100 nM, 5 folds dilution, 8 points). After incubation at 4° C. for 60 minutes, the cells were washed with 2% FBS/PBS buffer twice, then stained with fluorescent conjugated secondary antibody at 4° C. for 30 minutes. After that the cells were washed twice and resuspended in 80 μL of 2% FBS/PBS buffer. Fluorescent signal of binding was detected using Agilent. The EC50 was calculated using the GraphPad Software (LaJolla, CA).

human LIV-1 [1] = target: T1, human LIV-1 (human, UniProt Q13433 29-755); experiment: cell-based or functional assay
T1 sequence (looked up): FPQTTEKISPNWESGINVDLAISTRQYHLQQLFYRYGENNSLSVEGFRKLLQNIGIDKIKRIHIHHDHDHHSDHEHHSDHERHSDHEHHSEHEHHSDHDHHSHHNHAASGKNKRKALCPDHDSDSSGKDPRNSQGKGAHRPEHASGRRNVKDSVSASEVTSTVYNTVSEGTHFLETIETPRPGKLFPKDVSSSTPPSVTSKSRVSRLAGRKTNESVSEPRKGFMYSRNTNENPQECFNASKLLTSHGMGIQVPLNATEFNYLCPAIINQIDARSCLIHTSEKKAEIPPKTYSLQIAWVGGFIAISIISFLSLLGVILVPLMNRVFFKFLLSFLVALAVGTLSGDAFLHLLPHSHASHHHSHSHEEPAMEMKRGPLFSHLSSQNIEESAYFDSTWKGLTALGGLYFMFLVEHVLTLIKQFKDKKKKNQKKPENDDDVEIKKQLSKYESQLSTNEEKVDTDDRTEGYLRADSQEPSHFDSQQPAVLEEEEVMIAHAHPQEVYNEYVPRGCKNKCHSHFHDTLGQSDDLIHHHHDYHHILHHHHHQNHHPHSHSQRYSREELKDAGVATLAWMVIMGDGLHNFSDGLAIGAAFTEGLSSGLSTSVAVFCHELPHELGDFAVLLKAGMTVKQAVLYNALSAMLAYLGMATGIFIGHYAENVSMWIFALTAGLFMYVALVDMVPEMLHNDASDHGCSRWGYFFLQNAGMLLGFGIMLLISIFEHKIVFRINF

human LIV-1 [2] = target: T1, human LIV-1; experiment: FACS, HEK293/H_LIV-1 cells
Method: as §1, §2

human LIV-1 [3] = target: T1, human LIV-1; experiment: cell-based or functional assay; remark: listed apart in the source
human LIV-1 [4] = target: T1, human LIV-1; experiment: cell-based or functional assay; remark: listed apart in the source

- EC50 (cynomolgus LIV-1): 2.69 nM
- Top (MFI) (cynomolgus LIV-1): 6290 MFI
- EC50 (human LIV-1 [2]): 3.6 nM
- Top (MFI) (human LIV-1 [2]): 16500 MFI
- Internalization EC50 (human LIV-1 [3]): 12.4 nM
- Internalization Top (RFU) (human LIV-1 [3]): 675000 RFU
- ADCC reporter EC50 (human LIV-1 [4]): 6.4 nM
- ADCC reporter Top (RFU) (human LIV-1 [4]): 53100 RFU
B1: 135C6E7 (antibody, V domains shown)
VH: EVQLVESGGGLVQPKGSLKLSCAASGFTFNTYAMNWVRQAPGKGLEWVARIRSKYNSYATYYADSVKDRFTISRDDSQSILYLQMNNLKTEDTAMYYCVRHEDYDGGFAYWGQGTLVTVSA
VL: DIVMSQSPSSLAVSVGEKVTMSCKSSQSLFKSRTRKNYLAWYQQKPGQSPKLLIYWASTRESGVPDRFTGSGSGTDFTLTISSVQAEDLAVYYCKESYNLMYTFGGGTKLEIK
notes: Tested as chimeric antibody
- Cell viability(%) (human LIV-1 [1]): 17.6%
- Cytotoxicity IC50 (human LIV-1 [1]): 4.6 nM

- EC50 (cynomolgus LIV-1): 0.11 nM
- Top (MFI) (cynomolgus LIV-1): 8060 MFI
- EC50 (human LIV-1 [2]): 0.1 nM
- Top (MFI) (human LIV-1 [2]): 15100 MFI
- Internalization EC50 (human LIV-1 [3]): 3.9 nM
- Internalization Top (RFU) (human LIV-1 [3]): 408000 RFU
- ADCC reporter EC50 (human LIV-1 [4]): 1.1 nM
- ADCC reporter Top (RFU) (human LIV-1 [4]): 36300 RFU
B2: 59C12C8 (antibody, V domains shown)
VH: EVQLQQSGAELVRSGASVKLSCTASDFNIEDYYIHWVKQRPEQGLEWIGWIDPENGDTEYAPKFQGKATMTADTSSNTAYLQLSSLTSEDTAVYYCPHGGGFRVFDYWGQGTTLTVSS
VL: DVLMTQTPLSLPVSLGDQASISCRSSQRIVHSNGNTYLEWYLQKPGQSPKLLIYKVSNRFSGVPDRFSGSGSGTDFTLKISRVEAEDLGVYYCFQGSHVPWTFGGGTKLEIK
notes: Tested as chimeric antibody
- Cell viability(%) (human LIV-1 [1]): 20.3%
- Cytotoxicity IC50 (human LIV-1 [1]): 0.81 nM

- EC50 (cynomolgus LIV-1): 0.2 nM
- Top (MFI) (cynomolgus LIV-1): 3370 MFI
- EC50 (human LIV-1 [2]): 0.23 nM
- Top (MFI) (human LIV-1 [2]): 7980 MFI
- Internalization EC50 (human LIV-1 [3]): 4.3 nM
- Internalization Top (RFU) (human LIV-1 [3]): 474000 RFU
- ADCC reporter EC50 (human LIV-1 [4]): 2.1 nM
- ADCC reporter Top (RFU) (human LIV-1 [4]): 81900 RFU
B3: 124H4D11 (antibody, V domains shown)
VH: EVPLQQSGAELVRSGASVKLSCTASGFNIKDYYMHWVKQRPEQGLEWIGWIDPENGDTEYDPKFQGKATMTADTSSNTADLQLSSLTSEDTAVYYCNARYYAFDYWGQGTTLTVSS
VL: B2 VL with R28S, D75E, H98Q, W101P, K108R
notes: Tested as chimeric antibody
- Cell viability(%) (human LIV-1 [1]): 15.4%
- Cytotoxicity IC50 (human LIV-1 [1]): 0.57 nM

- EC50 (cynomolgus LIV-1): 0.76 nM
- Top (MFI) (cynomolgus LIV-1): 3450 MFI
- EC50 (human LIV-1 [2]): 0.85 nM
- Top (MFI) (human LIV-1 [2]): 7910 MFI
- Internalization EC50 (human LIV-1 [3]): 32.2 nM
- Internalization Top (RFU) (human LIV-1 [3]): 835000 RFU
- ADCC reporter EC50 (human LIV-1 [4]): 4.8 nM
- ADCC reporter Top (RFU) (human LIV-1 [4]): 83900 RFU
B4: 136F3D10C10 (antibody, V domains shown)
VH: QVQLQQSGPELVKPGASVRIFCKASGYTFTSFHIHWVKQRPGQGLEWIGWIYPGNDNTDHNEKFKGKATLSADKSSSTVYMQLSSLTSEDSAVYFCGRSNYYGPLFAYWGQGTLVTVSA
VL: B2 VL with V2I, R28N, H31R, L51V, K55R, H98Y, W101Y
notes: Tested as chimeric antibody
- Cell viability(%) (human LIV-1 [1]): 16.3%
- Cytotoxicity IC50 (human LIV-1 [1]): 1.21 nM

- EC50 (cynomolgus LIV-1): 12 nM
- Top (MFI) (cynomolgus LIV-1): 2930 MFI
- EC50 (human LIV-1 [2]): 20.7 nM
- Top (MFI) (human LIV-1 [2]): 8800 MFI
- Internalization EC50 (human LIV-1 [3]): 13.2 nM
- Internalization Top (RFU) (human LIV-1 [3]): 643000 RFU
- ADCC reporter EC50 (human LIV-1 [4]): 20.5 nM
- ADCC reporter Top (RFU) (human LIV-1 [4]): 74700 RFU
B5: 112H11C12 (antibody, V domains shown)
VH: QVQLQQPGAELVRPGASVKLSCKASGYTFTSYWMNWVKQRPGQGLKWIGMIDPSNSKTHYNQMFKDKATLTVDKSSNTAYMQLSSLTSEDSAVYYCARTSTTMATFAYWGQGTLVSVSA
VL: B2 VL with R28S, G96A, V99F, W101L, G105A, K108E, E110D, I111L, K112N
notes: Tested as chimeric antibody; also called 112H1C12
- Cell viability(%) (human LIV-1 [1]): 18%
- Cytotoxicity IC50 (human LIV-1 [1]): 2.08 nM

- EC50 (cynomolgus LIV-1): 2.05 nM
- Top (MFI) (cynomolgus LIV-1): 2700 MFI
- EC50 (human LIV-1 [2]): 0.89 nM
- Top (MFI) (human LIV-1 [2]): 9640 MFI
- Internalization EC50 (human LIV-1 [3]): 4.6 nM
- Internalization Top (RFU) (human LIV-1 [3]): 357000 RFU
- ADCC reporter EC50 (human LIV-1 [4]): 0.5 nM
- ADCC reporter Top (RFU) (human LIV-1 [4]): 61600 RFU
B6: 248H1G3 (antibody, V domains shown)
VH: EVQLQQSGPELMKRGASVKISCKTSTFTFTEFTIHWVKQSHGKSLEWIGGINPNTGGTSYNQNFTGKATLTVDKSSITAYMELRSLTSEDSAIYYCAPNWDGYWFFDVWGAGTTVTVSS
VL: DIQMTQSPASLSASVGETVTITCRASGNIQNYLAWYQQKQGKSPQLLVYGAKTLADGVPSRFSGSGSGTQFSLKINSLQPEDFGSYYCQHFWSPPLTFGAGTKLELK
notes: Tested as chimeric antibody
- Cell viability(%) (human LIV-1 [1]): 3.31%
- Cytotoxicity IC50 (human LIV-1 [1]): 2.99 nM

— patent publication US20240325555A1 (LANOVA MEDICINES, published 2024)
